From patent US20240116985A1 (published 2024)
Starred links: 1 amine or outer side, 2 acyl side, 3 side chain; linkers in the order of their positions; H or OH if unused. Positions of bridges follow the written chain, without caps; N, C: chain ends. Non-standard residues stand in square brackets, D forms with d. Primed or numbered codes have the meaning given here. B5(17) = 2,2-bis(4-pentenyl)glycine = 2-amino-2-(pent-4-en-1-yl)hept-6-enoic acid, stitching residue, C=CCCCC(CCCC=C)(N[*:1])C(=O)[*:2]; B5(23) = 2-amino-2-(pent-4-en-1-yl)hept-6-enoic acid (2,2-bis(4-pentenyl)glycine), stitching residue, C=CCCCC(CCCC=C)(N[*:1])C(=O)[*:2]; B5(4) = 2,2-bis(4-pentenyl)glycine = 2-amino-2-(pent-4-en-1-yl)hept-6-enoic acid (stitching residue), C=CCCCC(CCCC=C)(N[*:1])C(=O)[*:2]; Phe(3,4-F2) = N[C@@H](Cc1ccc(F)c(F)c1)C(=O)O; Phe(3-F) = N[C@@H](Cc1cccc(F)c1)C(=O)O; Phe(4-F) = N[C@@H](Cc1ccc(F)cc1)C(=O)O; Bta = N[C@@H](Cc1csc2ccccc12)C(=O)O; αAllylPro = C=CC[C@@]1(C(=O)O)CCCN1; 2Pal = N[C@@H](Cc1ccccn1)C(=O)O; 3Pal = N[C@@H](Cc1cccnc1)C(=O)O; S8 = C=CCCCCCC[C@](C)(N)C(=O)O; hSer = N[C@@H](CCO)C(=O)O

T1: B-cat-Halo (beta-catenin HaloTag NanoBRET construct expressed in HEK293 cells) (UniProt P35222 1-781)
T1 sequence (looked up): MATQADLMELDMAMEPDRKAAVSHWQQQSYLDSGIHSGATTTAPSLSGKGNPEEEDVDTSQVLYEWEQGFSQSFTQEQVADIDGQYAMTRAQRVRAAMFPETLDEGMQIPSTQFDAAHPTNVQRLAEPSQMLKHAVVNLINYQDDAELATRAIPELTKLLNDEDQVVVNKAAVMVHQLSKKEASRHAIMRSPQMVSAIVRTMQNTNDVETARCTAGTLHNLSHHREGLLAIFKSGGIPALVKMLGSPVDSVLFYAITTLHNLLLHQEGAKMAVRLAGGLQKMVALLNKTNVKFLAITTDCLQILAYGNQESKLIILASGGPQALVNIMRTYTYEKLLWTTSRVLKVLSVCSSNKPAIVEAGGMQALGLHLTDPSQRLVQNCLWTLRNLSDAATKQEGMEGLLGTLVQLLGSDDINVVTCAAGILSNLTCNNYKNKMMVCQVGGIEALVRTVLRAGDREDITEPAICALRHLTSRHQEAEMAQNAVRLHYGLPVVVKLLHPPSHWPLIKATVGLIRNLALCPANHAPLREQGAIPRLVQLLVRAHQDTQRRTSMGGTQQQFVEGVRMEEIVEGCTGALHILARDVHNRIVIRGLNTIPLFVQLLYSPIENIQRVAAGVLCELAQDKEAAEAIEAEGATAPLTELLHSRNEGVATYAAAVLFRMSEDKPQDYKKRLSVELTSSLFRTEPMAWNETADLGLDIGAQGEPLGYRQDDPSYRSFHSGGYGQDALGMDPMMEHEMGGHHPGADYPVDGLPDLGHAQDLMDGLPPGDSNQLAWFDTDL

T2: full-length beta-Catenin (Uniprot ID P35222) (Homo sapiens (Human), UniProt P35222 1-781)
T2 construct: The assay protocols call it full-length; also called B-Catenin; bCat
T2 sequence: T1 sequence (looked up)

T3: full-length beta-Catenin (Uniprot ID P35222) (Homo sapiens (Human), UniProt P35222 2-781)
T3 construct: full-length; also called bCat; B-Catenin
T3 sequence: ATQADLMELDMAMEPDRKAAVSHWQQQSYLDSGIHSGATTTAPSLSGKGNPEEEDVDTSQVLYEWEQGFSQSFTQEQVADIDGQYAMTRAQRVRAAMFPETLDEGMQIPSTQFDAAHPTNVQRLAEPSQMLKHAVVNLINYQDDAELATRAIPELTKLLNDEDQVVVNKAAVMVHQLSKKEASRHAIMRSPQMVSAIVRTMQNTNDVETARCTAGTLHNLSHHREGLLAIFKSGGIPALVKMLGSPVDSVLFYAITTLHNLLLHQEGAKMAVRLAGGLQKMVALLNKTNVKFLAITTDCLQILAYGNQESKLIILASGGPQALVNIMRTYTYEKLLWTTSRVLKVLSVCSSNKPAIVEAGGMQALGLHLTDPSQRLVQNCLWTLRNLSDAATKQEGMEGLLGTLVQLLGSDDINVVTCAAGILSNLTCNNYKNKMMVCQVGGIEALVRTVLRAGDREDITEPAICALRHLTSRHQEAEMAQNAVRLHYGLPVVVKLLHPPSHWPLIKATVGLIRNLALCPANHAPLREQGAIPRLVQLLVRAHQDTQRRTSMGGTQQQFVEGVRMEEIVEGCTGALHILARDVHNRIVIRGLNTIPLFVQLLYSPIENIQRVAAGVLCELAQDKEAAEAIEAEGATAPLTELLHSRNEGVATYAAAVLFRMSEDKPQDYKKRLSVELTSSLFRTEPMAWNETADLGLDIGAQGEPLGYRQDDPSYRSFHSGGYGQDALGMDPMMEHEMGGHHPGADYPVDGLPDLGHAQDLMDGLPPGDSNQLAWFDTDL

B1: I-1553 (peptide)
peptide: Ac-[αAllylPro]DK[B5(23)]DEAAFL[S8]F[Bta]Q-NH2
modifications: staple 1-4, 4-11
notes: Stapled peptide composition; also called Ac-PL3-Asp-Lys-B5-Asp-Glu-Ala-Ala-Phe-Leu-S8-Phe-BztA-Gln-NH2
B2: I-1554 (peptide)
peptide: Ac-[αAllylPro]DK[B5(23)]DEAAF[hSer][S8]F[Bta]Q-NH2
modifications: staple 1-4, 4-11
notes: Stapled peptide composition; also called Ac-PL3-Asp-Lys-B5-Asp-Glu-Ala-Ala-Phe-Hse-S8-Phe-BztA-Gln-NH2
B3: I-263 (peptide)
peptide: XDAXDDAAFVXFWQ
modifications: not fully specified; N-terminal Ac; PL3 at 1; B5 at 4; S8 at 11; 34FF at 12; C-terminal NH2; staples PL3(1)-B5(4) and B5(4)-S8(11) by olefin metathesis
notes: Stapled (stitched) peptide; also called Ac-PL3-Asp-Ala-B5-Asp-Asp-Ala-Ala-Phe-Val-S8-34FF-Trp-Gln-NH2
B4: I-289 (peptide)
peptide: XDAXDDAAFVXFW
modifications: not fully specified; N-terminal Ac; PL3 at 1; B5 at 4; S8 at 11; C-terminal NH2; staples PL3(1)-B5(4) and B5(4)-S8(11) by olefin metathesis
notes: Stapled (stitched) peptide; also called Ac-PL3-Asp-Ala-B5-Asp-Asp-Ala-Ala-Phe-Val-S8-Phe-Trp-NH2
B5: I-261 (peptide)
peptide: Ac-[αAllylPro]DA[B5(4)]DDAAFV[S8][Phe(4-F)]WQ-NH2
modifications: staple 1-4, 4-11
notes: Stapled (stitched) peptide; also called Ac-PL3-Asp-Ala-B5-Asp-Asp-Ala-Ala-Phe-Val-S8-4FF-Trp-Gln-NH2
B6: I-262 (peptide)
peptide: XDAXDDAAFVXFWQ
modifications: not fully specified; N-terminal Ac; PL3 at 1; B5 at 4; S8 at 11; 34FF at 12; C-terminal NH2; staples PL3(1)-B5(4) and B5(4)-S8(11) by olefin metathesis
notes: as for B3
B7: I-266 (peptide)
peptide: Ac-[αAllylPro]DA[B5(4)]DDAA[Phe(4-F)]V[S8]FWQ-NH2
modifications: staple 1-4, 4-11
notes: Stapled (stitched) peptide; also called Ac-PL3-Asp-Ala-B5-Asp-Asp-Ala-Ala-4FF-Val-S8-Phe-Trp-Gln-NH2
B8: I-270 (peptide)
peptide: Ac-[αAllylPro]DA[B5(17)]D[2Pal]AAFV[S8]FWQ-NH2
modifications: staple 1-4, 4-11
notes: Stapled (stitched) peptide; also called Ac-PL3-Asp-Ala-B5-Asp-2PyrA-Ala-Ala-Phe-Val-S8-Phe-Trp-Gln-NH2
B9: I-271 (peptide)
peptide: Ac-[αAllylPro]DA[B5(17)]D[3Pal]AAFV[S8]FWQ-NH2
modifications: staple 1-4, 4-11
notes: Stapled (stitched) peptide; also called Ac-PL3-Asp-Ala-B5-Asp-3PyrA-Ala-Ala-Phe-Val-S8-Phe-Trp-Gln-NH2
B10: I-265 (peptide)
peptide: Ac-[αAllylPro]DA[B5(4)]DDAA[Phe(3-F)]V[S8]FWQ-NH2
modifications: staple 1-4, 4-11; not fully specified; printed as Ac-PL3-Asp-Ala-B5-Asp-Asp-Ala-Ala-3FF-Val-S8-Phe-Trp-Gln-NH2
notes: Stapled (stitched) peptide; also called Ac-PL3-Asp-Ala-B5-Asp-Asp-Ala-Ala-3FF-Val-S8-Phe-Trp-Gln-NH2
B11: I-264 (peptide)
peptide: Ac-[αAllylPro]DA[B5(4)]DDAA[Phe(3-F)]V[S8]FWQ-NH2
modifications: staple 1-4, 4-11; not fully specified; printed as Ac-PL3-Asp-Ala-B5-Asp-Asp-Ala-Ala-3FF-Val-S8-Phe-Trp-Gln-NH2
notes: as for B10
B12: I-275 (peptide)
peptide: XDAXDDAAFVXXWQ
modifications: not fully specified; N-terminal Ac; PL3 at 1; B5 at 4; S8 at 11; 1NapA at 12; C-terminal NH2; staples PL3(1)-B5(4) and B5(4)-S8(11) by olefin metathesis
notes: Stapled (stitched) peptide; also called Ac-PL3-Asp-Ala-B5-Asp-Asp-Ala-Ala-Phe-Val-S8-1NapA-Trp-Gln-NH2
B13: I-290 (peptide)
peptide: XDAXDDAAFVXFW
modifications: not fully specified; N-terminal Ac; PL3 at 1; B5 at 4; S8 at 11; C-terminal NH2; staples PL3(1)-B5(4) and B5(4)-S8(11) by olefin metathesis
notes: as for B4
B14: I-276 (peptide)
peptide: XDAXDDAAFVXXWQ
modifications: not fully specified; N-terminal Ac; PL3 at 1; B5 at 4; S8 at 11; 1NapA at 12; C-terminal NH2; staples PL3(1)-B5(4) and B5(4)-S8(11) by olefin metathesis
notes: as for B12
B15: I-267 (peptide)
peptide: Ac-[αAllylPro]DA[B5(17)]DDAA[Phe(3,4-F2)]V[S8]FWQ-NH2
modifications: staple 1-4, 4-11
notes: Stapled (stitched) peptide; also called Ac-PL3-Asp-Ala-B5-Asp-Asp-Ala-Ala-34FF-Val-S8-Phe-Trp-Gln-NH2
B16: I-260 (peptide)
peptide: Ac-[αAllylPro]DA[B5(4)]DDAAFV[S8][Phe(3-F)]WQ-NH2
modifications: staple 1-4, 4-11
notes: Stapled (stitched) peptide; also called Ac-PL3-Asp-Ala-B5-Asp-Asp-Ala-Ala-Phe-Val-S8-3FF-Trp-Gln-NH2
B17: I-286 (peptide)
peptide: XDAXDDAAFAXFWA
modifications: not fully specified; N-terminal Ac; PL3 at 1; B5 at 4; S8 at 11; C-terminal NH2; staples PL3(1)-B5(4) and B5(4)-S8(11) by olefin metathesis
notes: Stapled (stitched) peptide; also called Ac-PL3-Asp-Ala-B5-Asp-Asp-Ala-Ala-Phe-Ala-S8-Phe-Trp-Ala-NH2
B18: I-285 (peptide)
peptide: XDAXDDAAFVXHWQ
modifications: not fully specified; N-terminal Ac; PL3 at 1; B5 at 4; S8 at 11; C-terminal NH2; staples PL3(1)-B5(4) and B5(4)-S8(11) by olefin metathesis
notes: Stapled (stitched) peptide; also called Ac-PL3-Asp-Ala-B5-Asp-Asp-Ala-Ala-Phe-Val-S8-His-Trp-Gln-NH2

Molecular target: T1, B-cat-Halo (beta-catenin HaloTag …)
Assay: cell-based or functional assay

Row | Binder | NanoBRET Abs IC50 [nM]
1 | B1 | > 20000
2 | B2 | > 20000

Molecular target: T2, full-length beta-Catenin (Uniprot ID …)
Assay: fluorescence polarization competition; full-length beta-catenin with 5FAM-labelled TCF4 10-53 peptide as competitor
Procedure: (§1) The plate was incubated protected from light for 60 minutes at 20° C. prior to read. Reads were performed on a CLARIOstar plate reader (BMG Labtech) in duplicate, and data were fitted to a 1:1 binding model with hill slope using an in-house script. All provided concentrations are final concentrations.

Row | Binder | EC50 [nM]
3 | B3 | 5000
4 | B4 | 5000
5 | B5 | 5000
6 | B6 | 5000
7 | B7 | 5000
8 | B8 | 5000
9 | B9 | 5000
10 | B10 | 3760
11 | B11 | 5000
12 | B12 | 5000
13 | B13 | 3290
14 | B14 | 3430
15 | B15 | 5000
16 | B16 | 5000
17 | B17 | 4480
18 | B18 | 5000

Molecular target: T3, full-length beta-Catenin (Uniprot ID …)
Assay: fluorescence polarization competition; displaces 5FAM-TCF4(10-53) from full-length beta-catenin
Procedure: as §1

Row | Binder | IC50 [nM]
19 | B1 | 133
20 | B2 | 63

Molecular target: T2, full-length beta-Catenin (Uniprot ID …)
Assay: AlphaScreen competition; full-length beta-catenin with biotin-labelled TCF4 10-53 peptide as competitor
Procedure: as §1, with “Equal volume of the titrated peptide was added to the” for “The”, “and” for “was”, “incubated for 15 minutes at 20° C. Then 4 uL of donor and 4 uL acceptor beads at 10 ug/mL were added to the plate, for a 16 uL reaction pool and” for “incubated”

Row | Binder | EC50 [nM]
21 | B3 | 864
22 | B4 | 626
23 | B5 | 347
24 | B6 | 967
25 | B7 | 318
26 | B8 | 835
27 | B9 | 788
28 | B10 | 194
29 | B11 | 364
30 | B12 | 859
31 | B13 | 303
32 | B14 | 329
33 | B15 | 620
34 | B16 | 683
35 | B17 | 450
36 | B18 | 246
